B1: TPR 5TU (parent)
chain: GGAUCUUCUCGAUCUAACAAAAAAGACAAAUCUGCCACAAAGCUUGAGAGCAUCUUCGGAUGCAGAGGCGGCAGCCUUCGGUGGCGCGAUAGCGCCAACGUUCUCAACUAUGACACGCAAAACGCGUGCUCCGUUGAAUGGAGUUUAUCAUG

Fewer inactive variants are shown than the library holds.

In the data set the parent is B1. Kind of data set: polymerase ribozyme fitness, log enrichment relative to wild type (log ratio); higher = more active; in vitro selection for triplet polymerase activity. A digest of the protocol:
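Input and output libraries were sequenced on Illumina after a single in vitro selection round, run in triplicate on PCR-built, transcribed mutant libraries of each subunit of a heterodimeric triplet polymerase ribozyme. Selection annealed libraries to a biotinylated primer, the partner subunit and triplets, incubated them frozen at −7 °C, then gel-excised extended constructs for streptavidin-bead capture and RT-PCR. Genotypes with ≥10 input reads and ≥1 read per output were kept. Fitness is the logarithm, taken in base 2, of genotype enrichment divided by wild-type enrichment, using inverse-variance-weighted replicate averages.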
As for U7C C85G, the “polymerase ribozyme fitness (log ratio)” value is -3.47.
On to U7A U61A A119U, for which the “polymerase ribozyme fitness (log ratio)” value was no more than -4.2.
For C8A A17C G62A G68A C85U U111G the value was no more than -4.2; for U7G A17C A142U U146C, -3.89; for U7C U53G G94A, no more than -4.2.
Regarding U6G U53A G80U, the “polymerase ribozyme fitness (log ratio)” value was no more than -4.2.
Next, C5G C14A G48U U53A G74A G80C U82G C96G C118G G133U: no more than -4.2; C8A A28C A30G C96A U127G: no more than -4.2.
With U7G C51U G88C G92U C95U G100U, the “polymerase ribozyme fitness (log ratio)” value was no more than -4.2.
Next, U6G A16G A24C U145C: no more than -4.2.
Next, U6C A21U C85U: -0.501; C5G U45C: -1.55; U6A A22U C27A C54A C57A C76U U78C C87U G128C A137G G141C: no more than -4.2.
For the variant U7G G25A A28U C54A C85U U148G C149U, the “polymerase ribozyme fitness (log ratio)” value was no more than -4.2.
On to U6G G46U G88C U134A A138G, for which the “polymerase ribozyme fitness (log ratio)” value is no more than -4.2.
Regarding C5G U53A C54G U77G U82C G92C C129G U144C, the “polymerase ribozyme fitness (log ratio)” value was no more than -4.2.
For U6A A12U A20U A41U A89C A120U the value was -3.91; for C5G G84A A147C, -0.43; for U6A A24U A60G, 0.116.
For U7C G50U the value was -2.42; for C8A A20C A22G G42C U53A C95U, no more than -4.2; for U7A C93U, -3.98.
Regarding U7A C93G, the “polymerase ribozyme fitness (log ratio)” value was no more than -4.2.
For U7A C38U G65A A107G G136U U146C the value was no more than -4.2; for U7A C14G U15G G88A, -3.61; for C5U A41U G50A, -2.81.
On to U7A A30U C32U C43U A60U C96A A107U, for which the “polymerase ribozyme fitness (log ratio)” value is -3.92.
For the variant C5G G141A, the “polymerase ribozyme fitness (log ratio)” value worked out at 0.249.
Turning to U6A A64U A66G G84A, the “polymerase ribozyme fitness (log ratio)” value is no more than -4.2.
For the variant U6G U9G U31A G48A C76G C87A U111C G140U, the “polymerase ribozyme fitness (log ratio)” value was no more than -4.2.
With U6G U45C C76A C93G C103A, the “polymerase ribozyme fitness (log ratio)” value was no more than -4.2.
Next, U6C A22U U31G C93A C114G: no more than -4.2.
For U6G C54A C75G C85A C105U A106U U111A G136U, the “polymerase ribozyme fitness (log ratio)” value is no more than -4.2.
Next, U6C A40C G50U A97U U104A G124C U130A: no more than -4.2.
On to C5G U6A A28U A30U A39C U45C U53A C57A C96G A115U C129U G140C, for which the “polymerase ribozyme fitness (log ratio)” value was -3.81.
For U7G C32U C38U U55G C57U U61A G62A G88A U146C the value was no more than -4.2.
Next, U6A A26U U53G C103A U109C: no more than -4.2; U6G U146A: -1.17.
As to U6G A52C C96G A115G, the “polymerase ribozyme fitness (log ratio)” value was -3.74.
C5U A37U C51U: the “polymerase ribozyme fitness (log ratio)” value was -1.26.
For U6G A23C G88C A97U the value was no more than -4.2.
For C5G C85U G88U C105G A119C the value was no more than -4.2; for U6G C38A A41C C95U U104C G126U, -2.03; for U6G G11A A19C A21C A24G C36G U56A U82A A142C, no more than -4.2.
As to C5U U6A C57U G67C G71A U82G C87G U104A U139G A142G, the “polymerase ribozyme fitness (log ratio)” value is no more than -4.2.
For U6G A20C C38U C57U U61A C76G G94C A97G U145G the value was no more than -4.2.
As for U7C A16U G50A C54A C57A C72G C85G A98U G141A, the “polymerase ribozyme fitness (log ratio)” value was no more than -4.2.
As for U7G U55A A91U U130A G141C, the “polymerase ribozyme fitness (log ratio)” value is no more than -4.2.
Next, U6A C57U A98G: -0.654; U6A A115U G141U: -1.01.
As to C8A A12C G42C C72U G86A, the “polymerase ribozyme fitness (log ratio)” value was no more than -4.2.
For C5U C14U A23C U90C C96A C103G G124U the value was no more than -4.2.
Turning to C8A A19C C35G A52C C87G, the “polymerase ribozyme fitness (log ratio)” value was no more than -4.2.
For U7C C38U G62C the value was -3.44; for C5U G81U C87A A107G U144G, no more than -4.2.
For U7A U9G the value was -3.64; for C5U A20U G50C G81A G117A C132U, no more than -4.2; for C5G C10G U13G C14G C54A C57U G88U G94A U139C U144C, no more than -4.2.
For U6A A22U the value was 0.00924; for C5G A41C U134C, -1.61.
Regarding C5G C32U U53G A73U C85U, the “polymerase ribozyme fitness (log ratio)” value was no more than -4.2.
Next, U6A U139C: -3.88; C5U A19U G83U G92U C123A G126U U146G: -4.19.
For U6G A12U G42C C76U C96G U134G U146G the value was no more than -4.2; for C5G U77C C87G U134G, no more than -4.2; for U6A A17G G58C A60C C69U C118U U146C, -4.14.
Turning to U6G A26U A37C G50C U53A C57A U82G C103G, the “polymerase ribozyme fitness (log ratio)” value was no more than -4.2.
Take U6A A20G U45A: the “polymerase ribozyme fitness (log ratio)” value is -3.51.
On to U6G A12U A22C G59C U61G A73U, for which the “polymerase ribozyme fitness (log ratio)” value was no more than -4.2.
Next, U7G A52U G140C: no more than -4.2; U6G C57A U61A G65A A121U G126A: -3.12; C8A: -2.84.
For U6A G50C G86U U102C A121C the value was no more than -4.2; for C5G U53G G92A C103A U111G A120U, no more than -4.2; for U6A U7G U13A C35A C54A G71U A91U U101A U127C G141U, no more than -4.2.
Take U7A G42A C85U A113U C116U C125G: the “polymerase ribozyme fitness (log ratio)” value was no more than -4.2.
In the case of C5U A22U A98G A122U, the “polymerase ribozyme fitness (log ratio)” value was determined as 0.571.
Turning to U6G A39G A49C, the “polymerase ribozyme fitness (log ratio)” value was no more than -4.2.
For the variant U7C A113G U139C, the “polymerase ribozyme fitness (log ratio)” value is no more than -4.2.
For C5U A21U G84A C131A, the “polymerase ribozyme fitness (log ratio)” value was -2.96.
Next, C5U A26U: -1.04; C5G C63A: 0.429.
In the case of C5U A17C C54A C85A C93U C105G A113G G141A, the “polymerase ribozyme fitness (log ratio)” value was no more than -4.2.
For U6A C10G C75G U78C C96G A97G U102G the value was no more than -4.2.

For the origin of these results see the RNAGym collection of RNA variant scans (doi:10.1073/pnas.2313332121).
